Key:
[1] = target: STIM2-2β-OASF (residues 238–504 containing the naturally occurring VAASYLIQ insertion after E383) (human); assay: SEC-MALS; 1 mg/mL protein injected on Superdex 200 Increase 10/300 GL at 10 °C; 20 mM TRIS, 300 mM NaCl, 1 mM DTT, pH 8.0; with 25 mM CaCl2; stoichiometric ratio = MALS molecular weight / theoretical monomer mass
[2] = target: STIM2-2β-OASF (residues 238–504 containing the naturally occurring VAASYLIQ insertion after E383) (human); assay: SEC-MALS; 1 mg/mL protein injected on Superdex 200 Increase 10/300 GL at 10 °C; 20 mM TRIS, 300 mM NaCl, 1 mM DTT, pH 8.0; without CaCl2; stoichiometric ratio = MALS molecular weight / theoretical monomer mass

STIM2-2β-OASF (residues 238–504 containing the naturally occurring VAASYLIQ insertion after E383) (domain or fragment), sequence (Q9P246 238-504): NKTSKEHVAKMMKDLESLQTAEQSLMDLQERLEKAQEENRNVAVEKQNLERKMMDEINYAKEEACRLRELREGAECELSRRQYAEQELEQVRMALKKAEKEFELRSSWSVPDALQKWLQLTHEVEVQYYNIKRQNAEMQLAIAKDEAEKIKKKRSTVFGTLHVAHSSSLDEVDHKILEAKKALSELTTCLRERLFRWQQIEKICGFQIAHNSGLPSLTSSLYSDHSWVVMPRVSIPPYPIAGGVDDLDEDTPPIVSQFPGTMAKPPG

stoichiometry N [1]: 1.97 | stoichiometry N [2]: 1.96
Substance: STIM2-2β-OASF (residues 238–504 containing the naturally occurring VAASYLIQ insertion after E383) (domain or fragment)

Reference: PMC6274866
